These results are taken from patent US20250122291A1 (CEPHALON, published 2025).

As a reminder, the EC50 is the concentration needed to bring the measured effect to its halfway point. Low values mean higher potency in that assay, high ones lower potency in that assay.

Assay [1] has as its target T1, hTrkB-Extracellular Domain-poly C-terminal Histidine tagged (human, UniProt Q16620 32-430).
T1 construct: extracellular domain; Immobilised on a CM5 chip by amine coupling; also called hTrkB-ECD-His; human TrkB
Put plainly: SPR, target amine-coupled on CM5 chip, 25 C, pH 7.4. For orientation: Surface plasmon resonance follows binding to a sensor surface in real time, without labels.

Assay [2] addresses T2, hTrkC-ECD-His (human, UniProt Q16288 32-429).
T2 construct: extracellular domain; Immobilised on a CM5 chip by amine coupling; also called human TrkC
The assay is described as above.

Assay [3] has as its target T3, hp75NTR-His (human, UniProt P08138 29-250).
T3 construct: extracellular domain; Immobilised on a CM5 chip by amine coupling; also called human p75NTR
T3 sequence (looked up): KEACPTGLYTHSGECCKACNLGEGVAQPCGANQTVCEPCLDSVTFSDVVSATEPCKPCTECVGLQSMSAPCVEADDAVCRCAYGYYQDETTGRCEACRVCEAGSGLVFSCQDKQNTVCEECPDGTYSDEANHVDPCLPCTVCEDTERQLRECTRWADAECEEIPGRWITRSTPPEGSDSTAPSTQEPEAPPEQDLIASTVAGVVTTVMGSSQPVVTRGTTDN
The description is as above.

Assay [4] has as its target native rat TrkA on PC12 cells (rat, UniProt P35739 33-799). Briefly: cell-based or functional assay.
For assay [5], the target named is T4, native human TrkA expressed endogenously on SH-SY5Y cells (human, UniProt P04629 33-796).
T4 construct: whole, on cells
T4 sequence (P04629 33-796): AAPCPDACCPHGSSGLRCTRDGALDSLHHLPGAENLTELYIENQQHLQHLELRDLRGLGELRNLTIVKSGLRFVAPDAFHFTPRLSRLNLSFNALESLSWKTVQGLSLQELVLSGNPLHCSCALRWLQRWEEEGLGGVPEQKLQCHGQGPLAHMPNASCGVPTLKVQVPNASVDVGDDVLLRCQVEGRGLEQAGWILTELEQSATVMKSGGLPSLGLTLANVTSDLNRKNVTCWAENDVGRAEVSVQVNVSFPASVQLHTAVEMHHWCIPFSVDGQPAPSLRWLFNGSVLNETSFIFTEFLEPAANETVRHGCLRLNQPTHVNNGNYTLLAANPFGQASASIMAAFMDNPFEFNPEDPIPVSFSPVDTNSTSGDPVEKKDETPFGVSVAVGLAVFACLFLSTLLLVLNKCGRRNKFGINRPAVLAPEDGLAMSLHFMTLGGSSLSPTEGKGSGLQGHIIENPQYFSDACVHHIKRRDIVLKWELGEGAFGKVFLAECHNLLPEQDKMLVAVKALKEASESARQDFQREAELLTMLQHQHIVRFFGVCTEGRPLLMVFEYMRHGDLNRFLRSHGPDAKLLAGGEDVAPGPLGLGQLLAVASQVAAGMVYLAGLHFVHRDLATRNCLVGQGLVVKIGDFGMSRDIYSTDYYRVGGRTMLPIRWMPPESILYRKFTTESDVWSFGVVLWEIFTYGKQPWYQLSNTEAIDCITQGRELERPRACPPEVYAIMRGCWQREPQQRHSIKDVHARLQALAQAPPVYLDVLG
Briefly: flow cytometry on SH-SY5Y cells, anti-human IgG Fc secondary, MFI, average of three experiments. A general note: In flow cytometry, cells or beads pass a laser one at a time.

Chain of native rat TrkA on PC12 cells (P35739 33-799): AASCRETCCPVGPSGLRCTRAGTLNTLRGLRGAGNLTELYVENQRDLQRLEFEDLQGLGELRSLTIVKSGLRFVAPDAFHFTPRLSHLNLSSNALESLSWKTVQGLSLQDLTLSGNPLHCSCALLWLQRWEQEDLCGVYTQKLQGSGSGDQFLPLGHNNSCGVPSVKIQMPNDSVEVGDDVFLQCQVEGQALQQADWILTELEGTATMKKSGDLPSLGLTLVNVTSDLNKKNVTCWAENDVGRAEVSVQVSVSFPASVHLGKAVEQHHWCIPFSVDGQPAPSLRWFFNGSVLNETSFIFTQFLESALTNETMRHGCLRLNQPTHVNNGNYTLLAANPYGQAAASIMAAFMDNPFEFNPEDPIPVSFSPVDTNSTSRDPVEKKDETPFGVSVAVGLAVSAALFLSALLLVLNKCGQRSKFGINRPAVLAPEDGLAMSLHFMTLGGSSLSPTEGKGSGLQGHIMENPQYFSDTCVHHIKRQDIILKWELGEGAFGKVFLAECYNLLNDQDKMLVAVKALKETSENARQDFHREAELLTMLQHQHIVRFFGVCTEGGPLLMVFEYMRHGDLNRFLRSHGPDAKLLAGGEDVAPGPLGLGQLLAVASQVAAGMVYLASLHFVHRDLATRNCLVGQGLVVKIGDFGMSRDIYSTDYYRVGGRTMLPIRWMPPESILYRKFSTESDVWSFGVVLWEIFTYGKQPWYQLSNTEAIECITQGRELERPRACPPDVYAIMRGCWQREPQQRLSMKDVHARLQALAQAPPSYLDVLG
T1 sequence (Q16620 32-430): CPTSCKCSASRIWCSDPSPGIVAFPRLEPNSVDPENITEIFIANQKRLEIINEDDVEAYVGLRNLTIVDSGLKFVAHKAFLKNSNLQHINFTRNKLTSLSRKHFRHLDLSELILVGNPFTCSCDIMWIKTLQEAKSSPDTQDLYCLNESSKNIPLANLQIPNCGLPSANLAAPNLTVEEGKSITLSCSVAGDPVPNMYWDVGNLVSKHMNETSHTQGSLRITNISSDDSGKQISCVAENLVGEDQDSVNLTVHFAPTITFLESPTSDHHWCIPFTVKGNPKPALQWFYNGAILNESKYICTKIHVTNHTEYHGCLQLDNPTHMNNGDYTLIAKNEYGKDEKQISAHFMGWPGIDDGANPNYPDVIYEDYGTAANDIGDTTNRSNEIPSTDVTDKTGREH

B1: anti-TrkA antibody Ab82, full length (antibody, V domains shown)
VH: QVQLQESGPGLVKPSGTLSLTCAVSGGSISSSNWWTWVRQPPGKGLEWIGEIYHRGNRNYNPSLKSRVTISVDKSKNQFSLKLSSVTAADTAVYYCARAPWFDYWGQGTLVTVSS
VL: SSELTQDPAVSVALGQTVRITCQGDALRSYYASWYQQKPGQAPVLVIYGKGNRPSGIPDRFSGSSSGNTASLTITGAQAEDEADYYCASQASSGNHLIFGGGTKLTVLG
notes: also called full length Ab82; full-length antibody
As to B1, in assay [1], the binding result is recorded as “no binding (tested: 1 nM)”. Moreover, the binding result in assay [2] is listed as “no binding (tested: 1 nM)”. The binding result in assay [3] is “no binding (tested: 1 nM)”. In assay [4], this molecule showed an Akt phosphorylation in PC12 cells, EC50 of 0.501 nM; an Erk phosphorylation in PC12 cells, EC50 of 0.54 nM; a TrkA receptor phosphorylation in PC12 cells (AlphaLISA p-TrkA Tyr674/675), EC50 of 0.341 nM; a neurite outgrowth in PC12 cells at 138 hours, EC50 of 0.0858 nM. In assay [5], this molecule gave an EC50 of 275 nM.
